What all share (test): flow cytometry on cells
(In general: A flow cytometer gives signals particle by particle.)

The target in assay [1] is PD-L1 expressed on Flp-In CHO cells (Homo sapiens (), UniProt Q9NZQ7).
In assay [2] the target is OX40 expressed on Flp-In CHO cells (Homo sapiens (), UniProt P43489).
The target in assay [3] is PD-1 expressed on Flp-In CHO cells (Homo sapiens (), UniProt Q15116).
PD-1 expressed on Flp-In CHO cells, sequence (Q15116 25-288): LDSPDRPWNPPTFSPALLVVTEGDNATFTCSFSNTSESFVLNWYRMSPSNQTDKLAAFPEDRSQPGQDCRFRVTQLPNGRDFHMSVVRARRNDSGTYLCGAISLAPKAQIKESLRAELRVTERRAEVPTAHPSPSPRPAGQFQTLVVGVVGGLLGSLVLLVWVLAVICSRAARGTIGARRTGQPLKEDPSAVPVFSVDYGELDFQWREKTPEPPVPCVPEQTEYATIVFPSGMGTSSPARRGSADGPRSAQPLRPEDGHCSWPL

OX40 expressed on Flp-In CHO cells, sequence (P43489 29-277): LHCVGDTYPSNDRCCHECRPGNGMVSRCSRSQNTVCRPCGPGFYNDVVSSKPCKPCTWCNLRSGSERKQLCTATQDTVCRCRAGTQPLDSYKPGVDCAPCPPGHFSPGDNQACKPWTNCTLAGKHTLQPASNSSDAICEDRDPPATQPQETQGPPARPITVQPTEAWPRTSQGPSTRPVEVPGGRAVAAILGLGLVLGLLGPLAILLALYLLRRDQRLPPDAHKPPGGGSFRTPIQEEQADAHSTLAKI
PD-L1 expressed on Flp-In CHO cells, sequence (Q9NZQ7 19-290): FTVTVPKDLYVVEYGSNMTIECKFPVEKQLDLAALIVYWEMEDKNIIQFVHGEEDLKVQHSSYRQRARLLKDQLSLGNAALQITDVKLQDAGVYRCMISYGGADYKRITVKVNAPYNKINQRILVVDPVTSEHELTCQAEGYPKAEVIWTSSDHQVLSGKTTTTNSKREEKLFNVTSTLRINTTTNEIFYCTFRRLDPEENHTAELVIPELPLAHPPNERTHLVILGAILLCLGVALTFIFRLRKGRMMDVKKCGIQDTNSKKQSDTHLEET

B1: tPDL1.3 full-length human IgG1 (antibody, V domains shown)
VH: QVQLVQSGAEVKKPGASVKVSCKASGFTFTSYDINWVRQATGQGLEWMGWMHPNSGITGYAQKFQGRVTMTRNTSISTAYMELSSLSSEDTAVYFCARYYYVSGSYDYWGQGTLVTVSS
VL: EIVMTQSPATLSLSPGERATLSCWASQSVSSSYLSWYQQKPGQAPRLLIYGASTRATGIPARFSGSGSGTDFTLTISSLQPEDFAVYYCQQDYNLPYTFGQGTKLEIK
The term EC50 denotes the midpoint of the concentration-response curve. Read a low EC50 as an effect from little substance. B1 returned an EC50 in assay [1] of 0.3 nM. That is a sub-nanomolar value.

B2: tOX40.24 full-length human IgG1 (antibody, V domains shown)
VH: QVQLVESGGGVVQPGRSLRLSCAASGFTFRSYGMHWVRQAPGKGLEWLAIIWYDGSNKYYADSVKGRLTISRDNSKNTLYLQMNSLRAEDTAVYYCARDTQVAEAGFPHHHYYGMDVWGQGTTVTVSS
VL: not shown
For the molecule B2, in assay [2], a half-maximal response (EC50) required 0.7 nM. That is a sub-nanomolar value.

B3: tPD1.16 full-length human IgG1 (antibody, V domains shown)
VH: QVQLVESGGGVVQPGRSLRLSCAASGFTFSNYGMHWVRQAPGKGLEWVAVIWYDGTNKFYADSVKGRFTISRDNSKNTLYLQMNSLRAEDTAVYYCATNSDDYWGQGTLVTVSS
VL: AIQMTQSPSSLSASVGDRVTITCRASQDIRNDLGWYQQKPGKAPKLLIYAASLLRSGVPSRFSGSGSGTDFTLTISSLQPEDFATYYCLQDNNYPRTFGQGTKVEIK
Consider B3, for which the EC50 in assay [3] was 2.8 nM. That is a single-digit nanomolar value.

The record behind these values is article PMC7531523 (mAbs, 2020).
